Literature values as cited in PMC3509699.
Where two headings read alike, the source gives them in different places.

How the values were obtained:
[1] = molecular target: KCa3.1 (Homo sapiens) (UniProt O15554)
[2] = molecular target: KV1.3 (Homo sapiens) (UniProt P22001)
[3] = molecular target: KCa3.1 (Homo sapiens) (UniProt O15554); remark: listed apart in the source
[4] = molecular target: KV1.3 (Homo sapiens) (UniProt P22001); remark: listed apart in the source

UniProt O15554, sequence (O15554 whole entry): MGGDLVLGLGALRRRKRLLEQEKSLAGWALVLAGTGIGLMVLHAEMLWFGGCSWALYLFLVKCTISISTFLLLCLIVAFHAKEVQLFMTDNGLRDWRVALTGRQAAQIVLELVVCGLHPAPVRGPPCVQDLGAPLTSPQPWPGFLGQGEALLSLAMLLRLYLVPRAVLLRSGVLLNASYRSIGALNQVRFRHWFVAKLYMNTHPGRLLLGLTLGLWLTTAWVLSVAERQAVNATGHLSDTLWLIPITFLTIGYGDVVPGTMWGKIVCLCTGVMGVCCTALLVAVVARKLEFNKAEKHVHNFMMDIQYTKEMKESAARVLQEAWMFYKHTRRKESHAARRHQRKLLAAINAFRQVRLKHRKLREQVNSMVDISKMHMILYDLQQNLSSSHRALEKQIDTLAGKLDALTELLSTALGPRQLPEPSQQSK
UniProt P22001, sequence (P22001 whole entry): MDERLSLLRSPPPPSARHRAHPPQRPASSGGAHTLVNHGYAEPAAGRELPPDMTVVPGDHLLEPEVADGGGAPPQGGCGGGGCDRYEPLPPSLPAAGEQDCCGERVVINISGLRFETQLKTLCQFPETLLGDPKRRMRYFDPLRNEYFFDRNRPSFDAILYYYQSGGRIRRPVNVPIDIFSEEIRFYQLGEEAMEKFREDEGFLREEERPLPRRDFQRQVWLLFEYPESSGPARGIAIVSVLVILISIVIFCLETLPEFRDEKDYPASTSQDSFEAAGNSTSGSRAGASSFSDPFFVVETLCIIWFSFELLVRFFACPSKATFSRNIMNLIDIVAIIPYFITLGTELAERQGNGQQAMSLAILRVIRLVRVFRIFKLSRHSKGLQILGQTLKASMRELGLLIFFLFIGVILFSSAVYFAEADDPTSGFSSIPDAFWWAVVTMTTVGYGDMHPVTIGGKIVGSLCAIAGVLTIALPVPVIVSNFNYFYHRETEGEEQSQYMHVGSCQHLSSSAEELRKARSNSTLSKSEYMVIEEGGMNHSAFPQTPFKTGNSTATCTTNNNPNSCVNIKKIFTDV

Maurotoxin (MTX) (from UniProt P80719)
Kd [1]: 1 nM

BmKTX (from UniProt Q9NII7)
Kd [2]: 0.2 nM

Charybdotoxin (ChTx) (from UniProt P13487)
Kd [3]: 5 nM

Margatoxin (from UniProt P40755)
Kd [4]: 0.11 nM
